Assay results taken from paper PMC2735609 (Cellular signalling, 2009).

Columns and labels:
Assay in all cases: radioligand binding
[1] = molecular target: hLHR(Y546F), on intact HEK293 cells (human, UniProt P22888 27-699, Y546F)
[2] = molecular target: hLHR(D405N), on intact HEK293 cells (human, UniProt P22888 27-699, D405N)
[3] = molecular target: hLHR(D405N,Y546F), on intact HEK293 cells (human, UniProt P22888 27-699, D405N | Y546F)
Sequence of hLHR(D405N,Y546F), on intact HEK293 cells (P22888 27-699 D405N/Y546F): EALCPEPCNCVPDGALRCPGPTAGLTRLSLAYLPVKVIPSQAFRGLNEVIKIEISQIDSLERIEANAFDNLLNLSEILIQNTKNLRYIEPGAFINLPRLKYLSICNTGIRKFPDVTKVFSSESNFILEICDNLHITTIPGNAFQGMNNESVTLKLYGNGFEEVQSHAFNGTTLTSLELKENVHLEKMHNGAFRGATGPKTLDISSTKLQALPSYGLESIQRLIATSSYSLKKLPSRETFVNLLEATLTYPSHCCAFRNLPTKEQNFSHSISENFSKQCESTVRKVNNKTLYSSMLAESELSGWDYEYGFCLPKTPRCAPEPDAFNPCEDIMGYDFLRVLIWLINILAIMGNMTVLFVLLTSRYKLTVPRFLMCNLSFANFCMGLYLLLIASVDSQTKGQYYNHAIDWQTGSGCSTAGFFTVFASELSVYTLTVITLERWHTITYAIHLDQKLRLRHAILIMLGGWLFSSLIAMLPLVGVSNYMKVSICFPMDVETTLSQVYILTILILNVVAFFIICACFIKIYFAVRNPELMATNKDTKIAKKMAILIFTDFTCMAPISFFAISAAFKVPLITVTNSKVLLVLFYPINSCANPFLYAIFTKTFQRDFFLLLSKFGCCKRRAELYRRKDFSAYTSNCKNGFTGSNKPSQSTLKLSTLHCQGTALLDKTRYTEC

Sequence of hLHR(D405N), on intact HEK293 cells (P22888 27-699 D405N): as the sequence (P22888 27-699 D405N/Y546F) above, with F520Y counted along it
Sequence of hLHR(Y546F), on intact HEK293 cells (P22888 27-699 Y546F): as the sequence (P22888 27-699 D405N/Y546F) above, with N379D counted along it

hCG bound to intact cells [1]: 22.6 ng hCG/10^6 cells
hCG bound to intact cells [2]: 20.4 ng hCG/10^6 cells
hCG bound to intact cells [3]: 8.7 ng hCG/10^6 cells
B1: human chorionic gonadotropin (hCG), highly purified recombinant, 125I-labelled (ligand)
chain 1: not shown
chain 2: SKEPLRPRCRPINATLAVEKEGCPVCITVNTTICAGYCPTMTRVLQGVLPALPQVVCNYRDVRFESIRLPGCPRGVNPVVSYAVALSCQCALCRRSTTDCGGPKDHPLTCDDPRFQDSSSSKAPPPSLPSPSRLPGPSDTPILPQ
modifications: 125I label (which chain is not stated) | 125I label (which chain is not stated)
